Ends that are not written are not given here. * marks the point of attachment. FITC = O=C1OC2(c3ccc(O)cc3Oc3cc(O)ccc32)c2ccc(NC(=S)*)cc21; Ahx = NCCCCCC(=O)O

Usually IC50 stands for the concentration at which inhibition is half-maximal. A higher IC50 goes with lower potency. For orientation: Kd means a measure of binding affinity in units of concentration.

To fix the notation:
B1: RNA recognition motif 1 (RRM1) of polypyrimidine tract binding protein 1 (PTBP1), residues 55-147 (domain or fragment, human, UniProt P26599 55-147, looked up)
chain: GVPSRVIHIRKLPIDVTEGEVISLGLPFGKVTNLLMLKGKNQAFIEMNTEEAANTMVNYYTSVTPVLRGQPIYIQFSNHKELKTDSSPNQARA
notes: human PTBP1 RRM1, UniProt P26599, residues 55-147, cloned into pET28a; 15N-labelled for the NMR experiment; also called PTBP1-RRM1; recombinant wildtype RRM1 protein; source: E. coli BL21 (DE3), purified (nickel chromatography, gel filtration)
B4: myeloid cell leukemia-1 (MCL1), residues 163-326 (domain or fragment, human, UniProt Q07820 163-326, looked up)
chain: TPPPAEEEEDELYRQSLEIISRYLREQATGAKDTKPMGRSGATSRKALETLRRVGDGVQRNHETAFQGMLRKLDIKNEDDVKSLSRVMIHVFSDGVTNWGRIVTLISFGAFVAKHLKTINQESCIEPLAESITDVLVRTKRDWLVKQRGWDGFVEFFHVEDLEG
notes: human MCL1, UniProt Q07820, residues 163-326, cloned into pET28a; also called recombinant MCL1; source: E. coli BL21 (DE3), purified (nickel chromatography, gel filtration)

Data set [1] concerns the target B4. Description: fluorescence polarisation; competitive FPA: 100 nM MCL1, 10 nM FITC-BAK BH3 peptide, unlabeled RRM1 titrated; 1x PBS pH 7.4, 0.1% DMSO. As to conditions: both partners purified. (In fluorescence polarisation assays a small probe gives low polarisation when free and higher when bound to something large.)
A further data set concerns the target PTBP1 RRM1 (human, UniProt P26599 55-147). Description: fluorescence polarization; tRNA background; 0.5 nM RNA; FP: 1x PBS pH 7.4, 1% DMSO, tRNA background, temperature not stated; EMSA: 10 mM Hepes pH 7.3, 20 mM KCl, 1 mM MgCl2, 1 mM DTT, tRNA (10 ug/ml in Methods, 10 ug/uL in Fig S2 legend), room temperature, 1% TBE agarose. As to conditions: protein: recombinant; tags: N-terminal His6 (pET28a); label: 3' FTSC (fluorescein-5-thiosemicarbazide); single-stranded, designed as unstructured.

Data set [2] has as its target B4. Description: fluorescence polarisation; direct FPA: 10 nM FITC-RRM1_(rBH3) peptide, recombinant MCL1 titrated; 1x PBS pH 7.4, 1% DMSO. The note with it: both partners purified.
Data set [3] addresses B1. Description: fluorescence polarisation; competitive FPA: 50 nM RRM1, 0.5 nM FTSC-labeled RNA from the 3'UTR of MCL1 mRNA, MCL1 titrated; 1x PBS pH 7.4, 1% DMSO, background of tRNA. As to conditions: both partners purified.

With B1, the IC50 in data set [1] was determined as 88 ± 3 nM. As for ACGCUUCUCUCAGGGAAAAACAUGC (ssRNA) [MCL1 3'UTR 25-mer RNA], the Kd in the data set with PTBP1 RRM1 is 16.1 ± 7.6 nM.

B2: FITC-labeled peptide containing the RRM1 rBH3 sequence (peptide)
peptide: {FITC-Ahx}-NTEEAANTMVNYYTSVTPVLRGQ
notes: stretch of PTBP1 RRM1 with the rBH3 motif (E104-Y114) on the alpha2 helix; also called F-RRM1_(rBH3); FITC-RRM1_(rBH3); source: synthetic peptide (GenScript)
B2: the Kd in data set [2] is less than 10 nM.

B3: FITC-labeled BAK peptide derived from its BH3 sequence (peptide)
peptide: {FITC-Ahx}-GQVGRQLAIIGDDINRRYD
notes: also called F-BAKBH3; FITC-BAK; source: synthetic peptide
As for B3, in data set [1], the binding result is listed as “binds”. With B4, the IC50 in data set [3] is 74.6 ± 37.3 nM.
